Experiment [1] has as its target T1, CGRP (CLR/RAMP1) receptor (Homo sapiens, UniProt O60894+Q16602).
T1 construct: expressed in transfected cells; host or cells: Cos 7 (African green monkey kidney), transient transfection with polyethylenimine
The experiment can be described thus: Antagonism of CGRP-induced cAMP accumulation in Cos 7 cells transfected with CLR/RAMP1. The format is cell-based. Here is the method:
(§1) 1. Antagonism of CGRP-Induced cAMP Accumulation in Transfected CGRP Receptor Expressing Cells
(§2) Simian vacuolating virus 40 (SV40) transformed African green monkey kidney (Cos 7) cells were transiently transfected with calcitonin receptor-like receptor (CLR) or calcitonin receptor (CTR) together with receptor activity-modifying protein 1 (RAMP1) to form CGRP or AMY1(a) receptors.
(§3) On the day of experimentation, media was replaced with 50 μl DMEM containing 1 mM isobutylmethylxanthine and 0.1% bovine serum albumin for 30 min. All peptides were diluted in assay medium and after the 30 min incubation, 25 μl antagonists were added, followed immediately by 25 μl human alpha CGRP (hαCGRP), giving a total assay volume of 100 μl. Once human alpha CGRP was added, the cells were incubated at 37° C. for 15 minutes. The media was then aspirated from the wells and reactions terminated with ice-cold absolute ethanol. Ethanol was evaporated to dryness and cAMP was quantified using a commercially-available assay (LANCE Perkin Elmer).
(§4) 3. Calculation of Antagonist Potency Values
(§5) Data were analysed using Graphpad Prism 7. Antagonist pKB or pA2 values were obtained using Global Schild analysis. […] Where a single concentration of antagonist was used, pA2 values are used to describe antagonist potency.

The target in experiment [2] is T2, AMY1 (CTR/RAMP1) receptor (Homo sapiens, UniProt O60894+P30988).
T2 construct: expressed in transfected cells; host or cells: Cos 7 (African green monkey kidney), transient transfection with polyethylenimine
The experiment can be described thus: Antagonism of CGRP-induced cAMP accumulation in Cos 7 cells transfected with CTR/RAMP1. The format is cell-based. Conditions: transfected Cos-7 cells, human alpha CGRP, mean ± s.e.m (n), read-out: Antagonist potency (pKB), AMY1 (CTR/RAMP1) (converted). Here is the method: as §1, §2, §3, §4, §5
For orientation: Cyclic AMP is a second messenger, typically raised through Gs and lowered through Gi signalling.

For experiment [3], the target named is T3, CGRP receptor endogenously expressed in SK-N-MC cells (Homo sapiens, UniProt O60894+Q16602).
T3 construct: SK-N-MC are human neuroblastoma-derived cells that endogenously express a CGRP receptor; endogenous in cells; host or cells: SK-N-MC human neuroblastoma-derived cells
The experiment can be described thus: Antagonism of CGRP-induced cAMP accumulation in SK-N-MC cells. Format: cell-based. The settings on record: human alpha CGRP, mean ± s.e.m (n), read-out: SK-N-MC (pA2) (converted). As for the experimental part:
The cells were cultured in DMEM supplemented with 8% heat inactivated fetal bovine serum and kept in a 37° C. humidified 95% air/5% CO2 incubator. […] On the day of experimentation, media was replaced with DMEM containing 1 mM isobutylmethylxanthine and 0.1% bovine serum albumin for 30 min. After this period antagonists were added, followed by human alpha CGRP. Once human alpha CGRP was added, the cells were incubated at 37° C. for 15 minutes. The media was then aspirated from the wells and reactions terminated with ice-cold absolute ethanol. […] Calculation of Antagonist Potency Values Data were analysed using Graphpad Prism 7. Antagonist pKB or pA2 values were obtained using Global Schild analysis. […] Where a single concentration of antagonist was used, pA2 values are used to describe antagonist potency.

For experiment [4], the target named is T2, AMY1 (CTR/RAMP1) receptor. The experiment can be described thus: cAMP assay with antagonist pre-incubation, with or without wash step, CTR/RAMP1 transfected Cos 7 cells. Format: cell-based. Conditions: 15 min antagonist pre-incubation, mean ± s.e.m (n). Here is the method:
Cos 7 cells were cultured in Dulbecco's Modified Eagle Medium (DMEM) supplemented with 8% heat inactivated fetal bovine serum and kept in a 37° C. humidified 95% air/5% CO2 incubator. […] In a different specific experimental paradigm, media was replaced with DMEM containing 1 mM isobutylmethylxanthine and 0.1% bovine serum albumin for 30 min. After this period, 25 μl of antagonist or media was added for 15 minutes at 37° C. as a pre-incubation period. After pre-incubation, the antagonist or media were aspirated from some wells, washed once with phosphate-buffered saline and replaced with 75 μl new media. The other wells with antagonist were not washed. […] Once human alpha CGRP was added, the cells were incubated at 37° C. for 15 minutes. The media was then aspirated from the wells and reactions terminated with ice-cold absolute ethanol. […] Calculation of Antagonist Potency Values Data were analysed using Graphpad Prism 7. Antagonist pKB or pA2 values were obtained using Global Schild analysis. […] Where a single concentration of antagonist was used, pA2 values are used to describe antagonist potency.

Experiment [5] has as its target T4, human CGRP receptor (CLR/RAMP1), transiently transfected in Cos 7 cells (human, UniProt Q16602 23-461; O60894 27-148). The experiment in a line: cell-based or functional assay.
In experiment [6] the target is CGRP receptor endogenously expressed by SK-N-MC human neuroblastoma-derived cells (human, UniProt Q16602 23-461; O60894 27-148). The experiment in a line: cell-based or functional assay.
Experiment [7] deals with T4, human CGRP receptor (CLR/RAMP1), …. The experiment can be described thus: cell-based or functional assay. The source holds these as a separate data set.
Experiment [8] has the same target. The experiment can be described thus: cell-based or functional assay. This is another data set of the same source.
For experiment [9], the target named is human AMY1(a) receptor (CTR/RAMP1), transiently transfected in Cos 7 cells (human), P30988. The experiment can be described thus: cell-based or functional assay.

Where no end group is shown, it is not given here. The star is where a group is joined. Ethyl(2-palmitoyloxy) = CCCCCCCCCCCCCCCC(=O)OCC*

T4 sequence (Q16602 23-461, chain 1 of 2): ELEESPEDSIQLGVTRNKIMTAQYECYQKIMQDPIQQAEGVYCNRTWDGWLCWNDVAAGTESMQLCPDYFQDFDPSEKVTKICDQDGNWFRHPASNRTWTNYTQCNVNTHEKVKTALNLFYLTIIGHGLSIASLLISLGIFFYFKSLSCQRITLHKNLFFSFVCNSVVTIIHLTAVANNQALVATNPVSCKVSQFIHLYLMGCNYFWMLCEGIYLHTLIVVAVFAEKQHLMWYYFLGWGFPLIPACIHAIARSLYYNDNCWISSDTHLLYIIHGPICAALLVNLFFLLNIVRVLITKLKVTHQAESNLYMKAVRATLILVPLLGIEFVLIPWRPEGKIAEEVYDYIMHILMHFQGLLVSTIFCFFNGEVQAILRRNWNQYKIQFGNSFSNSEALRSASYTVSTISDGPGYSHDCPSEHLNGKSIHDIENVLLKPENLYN
T4 sequence (O60894 27-148, chain 2 of 2): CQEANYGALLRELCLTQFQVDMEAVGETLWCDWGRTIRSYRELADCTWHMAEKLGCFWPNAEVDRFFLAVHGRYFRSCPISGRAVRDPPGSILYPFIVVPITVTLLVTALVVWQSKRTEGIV
Chain of CGRP receptor endogenously expressed by SK-N-MC human neuroblastoma-derived cells (Q16602 23-461, chain 1 of 2): as the sequence (Q16602 23-461, chain 1 of 2) above
Chain of CGRP receptor endogenously expressed by SK-N-MC human neuroblastoma-derived cells (O60894 27-148, chain 2 of 2): as the sequence (O60894 27-148, chain 2 of 2) above
Chain of human AMY1(a) receptor (CTR/RAMP1), transiently transfected in Cos 7 cells (human), P30988 (P30988 25-474, chain 1 of 2): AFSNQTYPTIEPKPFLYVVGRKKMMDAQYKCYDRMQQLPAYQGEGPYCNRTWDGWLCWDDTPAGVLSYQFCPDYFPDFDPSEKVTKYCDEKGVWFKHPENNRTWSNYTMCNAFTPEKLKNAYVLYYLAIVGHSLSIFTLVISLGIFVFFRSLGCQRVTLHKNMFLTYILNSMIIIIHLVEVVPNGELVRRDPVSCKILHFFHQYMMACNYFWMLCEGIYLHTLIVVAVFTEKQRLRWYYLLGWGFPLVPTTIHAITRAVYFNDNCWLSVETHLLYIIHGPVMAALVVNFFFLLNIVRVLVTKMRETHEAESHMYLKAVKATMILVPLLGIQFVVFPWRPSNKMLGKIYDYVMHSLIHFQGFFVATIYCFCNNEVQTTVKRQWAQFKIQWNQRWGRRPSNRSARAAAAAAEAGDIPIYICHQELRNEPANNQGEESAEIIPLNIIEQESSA
Chain of human AMY1(a) receptor (CTR/RAMP1), transiently transfected in Cos 7 cells (human), P30988 (O60894 27-148, chain 2 of 2, further chain): as the sequence (O60894 27-148, chain 2 of 2) above
T2 sequence (P30988 25-474): as the sequence (P30988 25-474, chain 1 of 2) above
T2 sequence (O60894 27-148): as the sequence (O60894 27-148, chain 2 of 2) above
T1 sequence (Q16602 23-461): as the sequence (Q16602 23-461, chain 1 of 2) above
T1 sequence (O60894 27-148): as the sequence (O60894 27-148, chain 2 of 2) above
T3 sequence (Q16602 23-461): as the sequence (Q16602 23-461, chain 1 of 2) above
T3 sequence (O60894 27-148): as the sequence (O60894 27-148, chain 2 of 2) above

On to `CCCCCCCCCCCCCCCC(=O)OCCSC[C@H](N)C(=O)N[C@H](C(=O)N[C@H](C(=O)N[C@@H](Cc1c[nH]cn1)C(=O)N[C@@H](CCCNC(=N)N)C(=O)N[C@@H](CC(C)C)C(=O)N[C@@H](C)C(=O)NCC(=O)N[C@@H](CC(C)C)C(=O)N[C@@H](CC(C)C)C(=O)N[C@@H](CO)C(=O)N[C@@H](CCCNC(=N)N)C(=O)N[C@@H](CO)C(=O)NCC(=O)NCC(=O)N[C@H](C(=O)N[C@H](C(=O)N[C@@H](CCCCN)C(=O)N[C@@H](CC(N)=O)C(=O)N[C@@H](CC(N)=O)C(=O)N[C@@H](Cc1ccccc1)C(=O)N[C@H](C(=O)N1CCC[C@H]1C(=O)N[C@H](C(=O)N[C@@H](CC(N)=O)C(=O)N[C@H](C(=O)NCC(=O)N[C@@H](CO)C(=O)N[C@@H](CCCCN)C(=O)N[C@@H](C)C(=O)N[C@@H](Cc1ccccc1)C(N)=O)C(C)C)[C@@H](C)O)C(C)C)C(C)C)C(C)C)[C@@H](C)O)C(C)C` [B1, 7C(S-Pam) CGRP7-37], for which the “Selectivity (fold-difference CGRP vs. AMY1)” value in experiment [1] (CGRP (CLR/RAMP1) vs. AMY1 (CTR/RAMP1), Cos-7 cells) is less than 2 fold. In addition, the Kb in experiment [1] (transfected Cos-7 cells, cAMP, human alpha CGRP, mean ± s.e.m (n), Global Schild analysis, read-out: Antagonist potency (pKB), CGRP (CLR/RAMP1) (converted)) is 1.66 nM; in experiment [2], 2.19 nM; in [3] it was 0.0224 nM; in [4] (not washed, read-out: pA2, AMY1 (CTR/RAMP1), Without wash (converted)), 0.501 nM; in experiment [4] (washed once with PBS, read-out: pA2, AMY1 (CTR/RAMP1), With wash (converted)), 1.17 nM.
Turning to VTHRLAGLLSRSGGVVC(Ethyl(2-palmitoyloxy))NNFVPTNVGSKAF-NH2 [K24C(S-Pam) CGRP8-37 A5], in experiment [5], the “A2 (antilog of the negative pA2; cAMP assay, Cos 7)” value stood at 6.8 nM; the “Selectivity (fold-difference CGRP vs. AMY1)” value was -4 fold; the “antagonist potency pKB (cAMP assay, Cos 7)” value (from here on “antagonist potency pKB”) is 8.17. Besides, in experiment [6], the “A2 (antilog of the negative pA2; cAMP assay, SK-N-MC)” value stood at 0.09 nM and the “antagonist potency pA2 (cAMP assay, SK-N-MC)” value was determined as 10.1. Moreover, in experiment [7], the “A2, with wash (cAMP assay, Cos 7)” value was 0.74 nM; the “A2, without wash (cAMP assay, Cos 7)” value was 0.05 nM; the “antagonist potency pA2, with wash (cAMP assay, Cos 7)” value (shortened to “antagonist potency pA2, with wash”) is 9.13; the “antagonist potency pA2, without wash (cAMP assay, Cos 7)” value (shortened to “antagonist potency pA2, without wash”) came to 10.3. For the same molecule, the “Fold change reduction in pA2 with wash” value in [8] came out at 14 fold. Also, in [9], the A2 (antilog of the negative pA2; cAMP assay, Cos 7) was determined as 1.8 nM; the A2, with wash (cAMP assay, Cos 7) worked out at 3.5 nM; the A2, without wash (cAMP assay, Cos 7) is 0.37 nM; the Fold change reduction in pA2 with wash was 9.6 fold. In addition, in experiment [9], the antagonist potency pA2, with wash (cAMP assay, Cos 7) stood at 8.45; the antagonist potency pA2, without wash (cAMP assay, Cos 7) was found to be 9.43; the antagonist potency pKB (cAMP assay, Cos 7) amounted to 8.75.
With C(Ethyl(2-palmitoyloxy))THRLAGLLSRSGGVVKNNFVPTNVGSKAF-NH2 [V8C(S-Pam) CGRP8-37 A4], in experiment [5], the “A2 (antilog of the negative pA2; cAMP assay, Cos 7)” value came to 0.59 nM; the “Selectivity (fold-difference CGRP vs. AMY1)” value was found to be 12 fold; the “antagonist potency pKB” value is 9.23. Also, in [6], the “A2 (antilog of the negative pA2; cAMP assay, SK-N-MC)” value stood at 0.02 nM and the “antagonist potency pA2 (cAMP assay, SK-N-MC)” value turned out to be 10.8. For the same molecule, in [7], the “A2, with wash (cAMP assay, Cos 7)” value came to 3.3 nM; the “A2, without wash (cAMP assay, Cos 7)” value is 0.15 nM; the “antagonist potency pA2, with wash” value was 8.48; the “antagonist potency pA2, without wash” value amounted to 9.82. Moreover, the “Fold change reduction in pA2 with wash” value in experiment [8] was 22 fold. In [9], this molecule came in with an A2 (antilog of the negative pA2; cAMP assay, Cos 7) of 7.1 nM; an A2, with wash (cAMP assay, Cos 7) of 2.9 nM; an A2, without wash (cAMP assay, Cos 7) of 1 nM; a Fold change reduction in pA2 with wash of 2.8 fold. Further, in experiment [9], the antagonist potency pA2, with wash (cAMP assay, Cos 7) is 8.54; the antagonist potency pA2, without wash (cAMP assay, Cos 7) was found to be 8.98; the antagonist potency pKB (cAMP assay, Cos 7) came to 8.15.

B1: 7C(S-Pam) CGRP7-37 B1 (peptide)
peptide: CVTHRLAGLLSRSGGVVKNNFVPTNVGSKAF
modifications: Cys 7 (CGRP numbering; residue 1 of the entry) S-conjugated to 2-(palmitoyloxy)ethyl (S-Pam); C-terminal amide
Take B1: in experiment [5], the “A2 (antilog of the negative pA2; cAMP assay, Cos 7)” value came to 1.7 nM; the “Selectivity (fold-difference CGRP vs. AMY1)” value is less than 2 fold; the “antagonist potency pKB” value is 8.78. In addition, in [6], the “A2 (antilog of the negative pA2; cAMP assay, SK-N-MC)” value was 0.02 nM and the “antagonist potency pA2 (cAMP assay, SK-N-MC)” value was 10.7. For the same molecule, in experiment [7], the “A2, with wash (cAMP assay, Cos 7)” value came to 0.46 nM; the “A2, without wash (cAMP assay, Cos 7)” value worked out at 0.14 nM; the “antagonist potency pA2, with wash” value was determined as 9.34; the “antagonist potency pA2, without wash” value turned out to be 9.86. Besides, in experiment [8], the “Fold change reduction in pA2 with wash” value is 3.3 fold.

For the origin of these results see patent US20200353088A1, “PEPTIDE CONJUGATE CGRP RECEPTOR ANTAGONISTS AND METHODS OF PREPARATION AND USES THEREOF” (Auckland UniServices Limited, priority 2017, published 2020).
